Residue numbers refer to the chain shown, from its start.
What was measured:
Assay in all cases: cleavage_in_vitro
[1] = target: T1, HpaI (Haemophilus parainfluenzae) (UniProt P29537); conditions: NEB4, 10 mM Mg acetate, 37 C
T1 sequence: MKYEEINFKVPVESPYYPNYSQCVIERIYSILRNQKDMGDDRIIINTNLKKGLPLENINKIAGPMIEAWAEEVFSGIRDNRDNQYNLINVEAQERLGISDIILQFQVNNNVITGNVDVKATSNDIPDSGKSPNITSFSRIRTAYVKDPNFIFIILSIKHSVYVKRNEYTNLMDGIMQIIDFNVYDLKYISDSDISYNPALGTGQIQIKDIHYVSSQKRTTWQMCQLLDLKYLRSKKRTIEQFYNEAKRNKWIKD

[2] = test system: T2, NcoI (Nocardia corallina); conditions: NEB1, 10 mM MgCl2, 37 C
T2 sequence: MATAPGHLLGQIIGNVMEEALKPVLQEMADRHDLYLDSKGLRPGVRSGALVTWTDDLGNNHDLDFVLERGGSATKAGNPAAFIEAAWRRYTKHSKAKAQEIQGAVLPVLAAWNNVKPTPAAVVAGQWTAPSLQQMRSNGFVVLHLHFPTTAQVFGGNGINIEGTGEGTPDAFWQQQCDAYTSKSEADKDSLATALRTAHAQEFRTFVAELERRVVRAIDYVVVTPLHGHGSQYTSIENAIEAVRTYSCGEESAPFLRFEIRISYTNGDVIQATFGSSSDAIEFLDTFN

[3] = target: T3, BamHI (Bacillus amyloliquefaciens) (UniProt P23940); conditions: NEB3, 10 mM MgCl2, 37 C
T3 sequence: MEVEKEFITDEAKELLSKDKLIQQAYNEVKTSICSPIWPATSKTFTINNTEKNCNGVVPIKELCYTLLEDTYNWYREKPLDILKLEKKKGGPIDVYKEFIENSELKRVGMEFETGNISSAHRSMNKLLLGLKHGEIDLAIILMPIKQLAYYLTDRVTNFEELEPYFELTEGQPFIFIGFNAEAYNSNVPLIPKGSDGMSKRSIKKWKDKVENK

[4] = target: T4, ScaI-HF H193A/S201F (Streptomyces caespitosus) (UniProt O52691); conditions: NEB4, 10 mM Mg acetate, 37 C
T4 sequence: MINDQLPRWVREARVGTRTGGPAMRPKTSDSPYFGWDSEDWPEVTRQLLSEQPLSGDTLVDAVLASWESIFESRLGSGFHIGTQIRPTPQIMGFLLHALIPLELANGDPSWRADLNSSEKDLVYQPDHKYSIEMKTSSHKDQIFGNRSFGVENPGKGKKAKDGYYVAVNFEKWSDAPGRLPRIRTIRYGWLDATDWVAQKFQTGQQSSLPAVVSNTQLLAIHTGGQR

BsmBI = conditions: NEB3, 10 mM MgCl2, 55 C
[5] = test system: T5, SspI (Sphaerotilus species); conditions: NEB1, 10 mM MgCl2, 37 C
T5 sequence: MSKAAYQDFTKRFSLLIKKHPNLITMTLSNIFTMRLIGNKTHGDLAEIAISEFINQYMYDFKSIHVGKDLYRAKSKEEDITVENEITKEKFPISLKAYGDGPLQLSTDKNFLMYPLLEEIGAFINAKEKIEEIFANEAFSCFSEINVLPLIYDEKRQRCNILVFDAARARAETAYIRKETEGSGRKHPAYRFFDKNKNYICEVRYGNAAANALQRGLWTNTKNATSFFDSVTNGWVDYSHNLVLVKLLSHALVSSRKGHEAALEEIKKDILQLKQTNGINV

[6] = target: EcoRI-HF K62E (Escherichia coli RY13) (UniProt P00642); conditions: NEB4, 10 mM Mg acetate, 37 C
[7] = target: T6, HindIII (Haemophilus influenzae Rd) (UniProt P43870); conditions: NEB2, 10 mM MgCl2, 37 C
T6 sequence: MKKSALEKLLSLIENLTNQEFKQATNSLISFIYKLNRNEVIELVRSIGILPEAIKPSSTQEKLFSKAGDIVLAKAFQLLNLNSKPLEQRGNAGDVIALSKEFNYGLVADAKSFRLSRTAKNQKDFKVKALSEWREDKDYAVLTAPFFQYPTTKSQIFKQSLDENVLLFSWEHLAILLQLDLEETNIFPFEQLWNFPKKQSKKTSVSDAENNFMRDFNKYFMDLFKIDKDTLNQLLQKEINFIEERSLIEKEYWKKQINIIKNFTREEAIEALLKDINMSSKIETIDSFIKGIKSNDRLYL

BstXI-HF N65A = conditions: NEB4, 10 mM Mg acetate, 55 C
[8] = target: T7, ScaI (Streptomyces caespitosus) (UniProt O52691); conditions: NEB2, 10 mM MgCl2, 37 C; printed as 1/8
T7 sequence: T4 sequence with A193H, F201S

[9] = test system: T8, SbfI (Streptomyces species Bf-61?); conditions: NEB1, 10 mM MgCl2, 37 C
T8 sequence: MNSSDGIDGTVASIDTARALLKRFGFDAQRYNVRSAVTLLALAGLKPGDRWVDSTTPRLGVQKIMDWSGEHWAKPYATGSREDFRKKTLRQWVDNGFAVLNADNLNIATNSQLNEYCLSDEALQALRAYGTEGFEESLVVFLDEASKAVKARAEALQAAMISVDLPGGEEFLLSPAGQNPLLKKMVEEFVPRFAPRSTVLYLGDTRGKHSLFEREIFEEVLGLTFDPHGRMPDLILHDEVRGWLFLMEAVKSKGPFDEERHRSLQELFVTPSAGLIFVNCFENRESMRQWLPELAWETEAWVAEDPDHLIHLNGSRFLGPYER

BstXI = conditions: NEB4, 10 mM Mg acetate, 55 C
[10] = target: EcoRI (Escherichia coli RY13) (UniProt P00642); conditions: NEB3, 10 mM MgCl2, 37 C
[11] = test system: T9, SphI-HF K100A (Streptomyces phaeochromogenes); conditions: NEB4, 10 mM Mg acetate, 37 C
T9 sequence: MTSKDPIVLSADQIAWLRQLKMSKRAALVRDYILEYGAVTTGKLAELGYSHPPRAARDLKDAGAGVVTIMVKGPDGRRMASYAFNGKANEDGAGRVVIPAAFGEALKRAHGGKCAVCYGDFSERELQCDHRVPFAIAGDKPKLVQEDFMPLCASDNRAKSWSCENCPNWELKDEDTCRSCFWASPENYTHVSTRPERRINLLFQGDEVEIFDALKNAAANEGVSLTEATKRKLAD

BsmBI-HF N185Y/R232A = conditions: NEB4, 10 mM Mg acetate, 55 C; listed as BsmBI

Substance lambda DNA has an activity (fidelity index) [1] of 16, an activity (fidelity index) [2] of 120 and an activity (fidelity index) [3] of 32. It also gave an activity (fidelity index) [4] of 1000, an activity (fidelity index) (BsmBI) of 120 and an activity (fidelity index) [5] of 64. The activity (fidelity index) [6] was 16000, the activity (fidelity index) [7] was 250 and the activity (fidelity index) (BstXI-HF N65A) was > 250. It also gave an activity (fidelity index) [8] of 0.125, an activity (fidelity index) [9] of 32 and an activity (fidelity index) (BstXI) of 4. For the same substance, the activity (fidelity index) [10] was 250, the activity (fidelity index) [11] was 8000 and the activity (fidelity index) (BsmBI-HF N185Y/R232A) was > 500.

Reference: US20130115676
